The values below come from PMC9317851, “Genomic Characterization of Bacillus safensis Isolated from Mine Tailings in Peru and Evaluation of Its Cyanide-Degrading Enzyme CynD” (Applied and Environmental Microbiology, 2022).

Data set [1] concerns the molecule itself. The data set is described as follows: SEC-MALS; pH 10; 100 mM NaCl, 20 mM CAPS; 100-μL injection of 3.47 mg/mL (89.36 μM) CynD; Superdex 200 increase 10/300 GL; size of the oligomers.
Data set [2] deals with the molecule itself. Put plainly: SEC-MALS; pH 8; 100 mM NaCl, 20 mM Tris-HCl; 100-μL injection of 3.47 mg/mL (89.36 μM) CynD; Superdex 200 increase 10/300 GL; size of the oligomers. Background: Size exclusion chromatography separates by hydrodynamic size, large species first.
Data set [3] concerns the molecule itself. Put plainly: SEC-MALS; pH 9; 100 mM NaCl, 20 mM Tris-HCl; 100-μL injection of 3.47 mg/mL (89.36 μM) CynD; Superdex 200 increase 10/300 GL; size of the oligomers.

B1: Cyanide dihydratase CynD from Bacillus safensis PER-URP-08 (CynD_(PER-URP-08)), recombinant with C-terminal 6xHis tag (enzyme, UniProt P0DXY3 1-330, looked up)
chain: MTSIYPKFRAAAVQAAPVYLNLEATVEKSCELIDEAASNGAKLVAFPEAFLPGYPWFAFIGHPEYTRKFYHELYKNAVEIPSLAIQKISEAAKRNETYVCISCSEKDGGSLYLAQLWFNPNGDLIGKHRKMRASVAERLIWGDGSGSMMPVFQTDIGNLGGLMCWEHQVPLDLMAMNAQNEQVHVASWPGYFDDEISSRYYAIATQTFVLMTSSIYTEEMKEMICLTQEQRDYFETFKSGHTCIYGPDGEPISDMVPAETEGIAYAEIDVERVIDYKYYIDPAGHYSNQSLSMNFNQQPTPVVKQLYHQKNEVFTYEDIQYQHGILEEKV
notes: Cyanide dihydratase CynD of Bacillus safensis PER-URP-08, locus EGI07_08135; monomer 38.5 kDa; The forward primer carries the NdeI site CATATG followed by a further atg, so an added N-terminal Met may be present; also called recombinant CynD; EGI07_08135; source: E. coli BL21(DE3)/pLysS, purified (Ni-NTA, size exclusion chromatography); not shown: 6xHis, C-terminal, kept
As to B1, the entries for the “stoichiometry N” value in data set [1], in data set [2] and in data set [3] were 3 to 5 mer, 24 to 48 mer and 4 to 6 mer, respectively.

The term stoichiometry N denotes a count of units in the complex or per binding partner.
